This note sets out measurements from US20220127354A1 (Amgen, published 2022).

Residue numbers refer to the chain shown, from its start. Numbers in names are those of the source.

Test in all cases: flow cytometry, transfected 293T cells, 2 mM CaCl2
In assay [1] the target is T1, muCDH19(44-770) with Flag tag (construct I, Mu EC1-5) (mouse).
T1 construct: leader left out; the entry starts at residue 44; also called Mo EC1-5; mouse Cadherin19
T1 chain: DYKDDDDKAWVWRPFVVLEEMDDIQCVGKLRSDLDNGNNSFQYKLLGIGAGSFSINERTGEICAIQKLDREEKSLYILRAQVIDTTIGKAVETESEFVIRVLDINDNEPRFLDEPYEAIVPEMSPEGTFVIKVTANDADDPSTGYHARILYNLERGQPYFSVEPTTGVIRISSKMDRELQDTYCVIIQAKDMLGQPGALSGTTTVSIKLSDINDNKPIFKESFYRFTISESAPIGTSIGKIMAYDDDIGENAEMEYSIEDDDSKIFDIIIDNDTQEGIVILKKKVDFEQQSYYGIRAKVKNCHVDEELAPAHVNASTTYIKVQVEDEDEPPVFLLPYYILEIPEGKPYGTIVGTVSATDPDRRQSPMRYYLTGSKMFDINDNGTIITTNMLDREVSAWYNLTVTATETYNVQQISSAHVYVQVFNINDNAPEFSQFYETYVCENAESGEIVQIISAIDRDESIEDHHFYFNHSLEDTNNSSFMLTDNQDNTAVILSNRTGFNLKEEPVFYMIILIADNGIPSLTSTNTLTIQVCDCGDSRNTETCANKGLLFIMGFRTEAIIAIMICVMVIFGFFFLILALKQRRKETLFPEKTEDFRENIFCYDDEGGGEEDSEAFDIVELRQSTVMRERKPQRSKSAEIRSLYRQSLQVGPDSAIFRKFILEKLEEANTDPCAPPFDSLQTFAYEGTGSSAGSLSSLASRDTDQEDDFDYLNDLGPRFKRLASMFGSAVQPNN
Procedure: (§1) The following binding assay was completed in presence of 2 mM CaCl₂). […] Cells were then washed one time and the amount of cell associated Alexa647-labelled Ab was quantitated by flow cytometry. The experiments included mock transfected controls.

The target in assay [2] is T2, ckCDH19(1-43)::FLAG::ckCDH19(44-249)::huCDH19(250-364)::ckCDH19(365-776) (construct M, Hu EC3) (human/chicken chimera).
T2 construct: leader (1-43 of the entry) left out
Procedure: (§2) The experiment included assaying a subset of anti-CDH19 antibodies against chicken Cadherin19 to determine suitability for binning on these human/chicken chimeras.
as §1

In assay [3] the target is T3, huCDH19(1-43)::FLAG::hu(44-141)::ckCDH19(142-776) (construct K, Hu EC1) (human/chicken chimera).
T3 construct: leader (1-43 of the entry) left out; also called huCDH19(44-141)::ckCDH19(142-776)
Procedure: as §2, §1

Assay [4] concerns the target T4, ckCDH19(1-43)::FLAG::ckCDH19(44-468)::huCDH19(464-772) (construct O, Hu EC5) (human/chicken chimera).
T4 construct: leader (1-43 of the entry) left out
T4 chain: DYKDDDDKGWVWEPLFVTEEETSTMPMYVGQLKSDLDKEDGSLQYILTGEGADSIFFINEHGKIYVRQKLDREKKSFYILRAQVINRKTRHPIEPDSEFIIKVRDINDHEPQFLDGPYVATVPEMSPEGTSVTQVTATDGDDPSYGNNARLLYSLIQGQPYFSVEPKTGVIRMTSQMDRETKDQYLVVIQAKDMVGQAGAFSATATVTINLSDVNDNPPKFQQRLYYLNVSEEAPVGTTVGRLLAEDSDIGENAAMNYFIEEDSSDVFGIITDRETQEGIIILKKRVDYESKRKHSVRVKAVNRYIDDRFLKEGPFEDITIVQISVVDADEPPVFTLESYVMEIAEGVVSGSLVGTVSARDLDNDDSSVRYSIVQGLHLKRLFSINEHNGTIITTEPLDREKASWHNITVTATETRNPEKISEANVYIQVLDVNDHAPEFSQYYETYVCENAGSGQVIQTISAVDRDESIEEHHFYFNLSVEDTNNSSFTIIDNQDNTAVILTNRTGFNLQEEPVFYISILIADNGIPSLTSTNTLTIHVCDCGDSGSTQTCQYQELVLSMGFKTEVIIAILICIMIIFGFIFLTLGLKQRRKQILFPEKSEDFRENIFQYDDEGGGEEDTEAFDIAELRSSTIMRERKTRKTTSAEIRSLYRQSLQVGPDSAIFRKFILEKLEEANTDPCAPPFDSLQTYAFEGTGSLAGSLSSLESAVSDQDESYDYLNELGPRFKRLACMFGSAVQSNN
Procedure: as §2, §1

For assay [5], the target named is T5, ckCDH19(1-43)::FLAG::ckCDH19(44-776) (construct J, Ck EC1-5) (chicken).
T5 construct: the entry holds leader (1-43), FLAG and ckCDH19(44-776); leader left out; also called chicken Cadherin19
T5 chain: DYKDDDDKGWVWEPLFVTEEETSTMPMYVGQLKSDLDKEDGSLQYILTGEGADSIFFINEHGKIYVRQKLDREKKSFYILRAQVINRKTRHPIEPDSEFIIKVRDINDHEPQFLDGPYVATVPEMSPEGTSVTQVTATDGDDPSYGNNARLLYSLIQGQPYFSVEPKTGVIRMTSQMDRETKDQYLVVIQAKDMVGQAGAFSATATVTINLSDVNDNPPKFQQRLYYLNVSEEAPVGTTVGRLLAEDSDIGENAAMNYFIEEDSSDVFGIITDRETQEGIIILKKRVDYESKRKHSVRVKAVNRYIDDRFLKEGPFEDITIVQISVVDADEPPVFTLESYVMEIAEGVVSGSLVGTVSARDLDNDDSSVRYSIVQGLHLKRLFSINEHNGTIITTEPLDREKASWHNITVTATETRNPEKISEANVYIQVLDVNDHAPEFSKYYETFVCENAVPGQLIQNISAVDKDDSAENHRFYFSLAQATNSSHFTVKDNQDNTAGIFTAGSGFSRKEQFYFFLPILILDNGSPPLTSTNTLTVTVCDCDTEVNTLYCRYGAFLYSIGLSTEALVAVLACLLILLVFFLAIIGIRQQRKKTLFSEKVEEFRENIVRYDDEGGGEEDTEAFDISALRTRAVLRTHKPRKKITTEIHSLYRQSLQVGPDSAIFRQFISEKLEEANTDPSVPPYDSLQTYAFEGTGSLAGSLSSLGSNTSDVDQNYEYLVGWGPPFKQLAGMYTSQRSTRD
Procedure: as §2, §1

B1: hu anti-<huCDH19> 4B10 (Ab ID 13590) (antibody, V domains shown)
VH: QVQLVESGGGVVQPGRSLRLSCAASGFTFSSYDMHWVRQAPGKGLEWVAVISYDGTNEYYADSVKGRFTISRDTSKNTLYLQMNSLRAEDTAVYYCARERYFDWSFDYWGQGTLVSVSS
VL: EIVLTQSPGTLSLSPGERATLSCRASQSVSNTYLAWYHQRPGQAPRLLIYGASSRATGIPDRFSGSGSGTDFALTISSLEPEDFAVYYCQQYSNSWTFGQGTKVEIKR
notes: huIgG1z / huKLC; Bin 4
For B1, the binding result in assay [1] is on record as “no binding (tested: 5 ug/ml)”; in assay [2], “binds”; in assay [3], “no binding (tested: 5 ug/ml)”; in assay [4], “no binding (tested: 5 ug/ml)”; in assay [5], “no binding (tested: 5 ug/ml)”.

B2: anti-CDH19 antibody 4A2 (Ab ID 13592) (antibody, human IgG1, kappa, V domains shown)
VH: QVQLQESGPGLVKPSQTLSLTCTVSGGSISSSGYYWSWIRQHPGKGLEWIGYIYYTGSAYYNPSLKSRVTISVDTSKNQFSLKLSSVTAADTAVYYCARDGSSGWYFQYWGQGTLVTVSS
VL: EIVLTQSPGTLSLSPGERATLSCRASRNISSSYLAWYQQKPGQAPRLLIYGPSSRATGIPDRFSGSGSGTDFTLTISRLEPEDFTVYYCQQYGSSFTFGPGTKVDIKR
notes: Bin 4
With B2, the binding result in assay [3], in assay [4] and in assay [5] was “no binding (tested: 5 ug/ml)” each time.

B3: hu anti-<huCDH19> 4A9 (Ab ID 13589) (antibody, human IgG1, lambda, V domains shown)
VH: QVQLQESGPGLVKPSETLSLTCTVSGGSISGYYWSWIRQPPGKGLEWFAYFSYSGSTNYNPSLKSRVTLSVDTSKNQFSLKLSSVTAADTAVYYCARNWAFHFDFWGQGTLVTVSS
VL: QSVLTQPPSVSGAPGQRVTISCTGSSSNIGTGYAVHWYQQFPGTAPKLLIYGNNNRPSGVPDRFSGSKSGTSASLAITGLQAEDEADYYCQSYDSRLSGWVFGGGTKLTVLG
notes: huIgG1z / huLLC-C1; Bin 1
In the case of B3, the binding result in assay [1] is “no binding (tested: 5 ug/ml)”; in assay [2], “no binding (tested: 5 ug/ml)”; in assay [3] it was “binds”; in assay [4] it was “no binding (tested: 5 ug/ml)”; in assay [5] it was “no binding (tested: 5 ug/ml)”.

B4: hu anti-<huCDH19> 26D1.1 (Ab ID 13882) (antibody, human IgG1, lambda, V domains shown)
VH: QVQLVQSGAEVKKPGASVKVSCKASRYTFTSYYMSWVRQAPGQGLEWMGIIHPSGGDTTYAQKFQGRVTMTGDTSTSTVYMELSSLRSEDTAVYYCARGGIKLWLHFDYWGQGTLVTVSS
VL: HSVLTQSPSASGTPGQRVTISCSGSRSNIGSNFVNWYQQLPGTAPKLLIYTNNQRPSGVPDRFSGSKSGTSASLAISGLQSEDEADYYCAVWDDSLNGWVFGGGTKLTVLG
notes: huIgG1z / huLLC-C2; Bin 2
In the case of B4, the binding result in assay [1] was “no binding (tested: 5 ug/ml)”; in assay [2], “no binding (tested: 5 ug/ml)”; in assay [3] it was “binds”; in assay [4], “no binding (tested: 5 ug/ml)”; in assay [5], “no binding (tested: 5 ug/ml)”.

B5: hu anti-<huCDH19> 25F8.1 (1-469)(F90Y) VH::huIgG1z + 25F8.1 (1-235)(K45Q,S102A,D111E) VL::huLLC-C2 (Ab ID 14096) (antibody, V domains shown)
VH: B4 VH with R26G, M34I, S35H, H52N, D57S, T59R, G72R, K102Q
VL: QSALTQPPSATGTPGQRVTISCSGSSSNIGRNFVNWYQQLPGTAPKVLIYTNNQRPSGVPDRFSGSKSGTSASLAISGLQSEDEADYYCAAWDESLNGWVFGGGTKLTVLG
notes: Engineered variant of 25F8; the entries already carry the changes; Bin 2
In the case of B5, the binding result is on record as “no binding (tested: 5 ug/ml)” in assay [2], “binds” in assay [3], “no binding (tested: 5 ug/ml)” in assay [4] and “no binding (tested: 5 ug/ml)” in assay [5].

B6: anti-CDH19 antibody 2G6 (Ab ID 13588) (antibody, human IgG1, lambda, V domains shown)
VH: QVQLVESGGGVVQPGRSLRLSCAASGFTFSSYGMHWVRQAPGKGLEWVAFIWYDGSNKYYADSVKDRFTISRDNSKNTLYLQMKSLRAEDTAVYYCARRAGIIGTIGYYYGMDVWGQGTTVTVSS
VL: SYELTQPPSVSVSPGQTASITCSGDRLGEKYTCWYQQRPGQSPLLVIYQDTKRPSGIPERFSGSNSGNTATLTISGTQAMDEADYYCQAWDSSTVVFGGGTKLTVLG
notes: Bin 4
In the case of B6, the binding result is recorded as “binds” in assay [2], “no binding (tested: 5 ug/ml)” in assay [3], “no binding (tested: 5 ug/ml)” in assay [4] and “no binding (tested: 5 ug/ml)” in assay [5].

B7: hu anti-<huCDH19> 23A10.3 (1-474)(L92Q) VH::huIgG1z + 23A10.3 (1-231)(C42S) VL::huLLC-C2 (Ab ID 14077) (antibody, V domains shown)
VH: B6 VH with S31R, M34I, F50V, D66G, K84N, T91S, I103P, I106T
VL: B6 VL with T32V, C33S, R38K, L44I, T51N, R53W
notes: Engineered variant of 23A10; the entries already carry the changes; Bin 4
Take B7: the binding result in assay [1] was “binds”; in assay [2] it was “binds”; in assay [3], “no binding (tested: 5 ug/ml)”; in assay [4] it was “no binding (tested: 5 ug/ml)”; in assay [5] it was “no binding (tested: 5 ug/ml)”.
